molecular target: T1, CD3εδ complex protein (human; alpaca, UniProt P07766 23-126; P04234 22-105); test: ELISA, CD3 complex immobilized
T1 construct: they are not part of the secreted protein; also called human CD3; CD386 complex protein
Method: Binding activities of the anti-TSPAN8/anti-CD3 bispecific antibodies BTE-0001 to BTE-0067 to CD3 were evaluated by the ELISA. ELISA was performed according to a conventional method. The […] complex protein obtained in Example 1-3 was immobilized on a plate. BTE-0001 to BTE-0067 were used as the test antibodies. As a secondary antibody, Goat anti-Human IgG Fc, Multi-Species SP ads-HRP (2014-05, available from SouthernBiotech) was used. TMB+Substrate-Chromogen (S1599, available from Dako) was used as the detection reagent. Infinite M200pro (available from Tecan) was used to measure the absorbance. The EC50 values were calculated using variable slope model (four parameters) in GraphPad Prism with the maximum value in the same plate fixed at the top and the minimum value in the blank in the same plate fixed at the bottom. Since BTE-0001 was always measured in each plate as a control, only the EC50 value of BTE-0001 was expressed as the average value of a plurality of plates. […]

T1 sequence (P07766 23-126 limits assumed, stated change not applied, form in doubt, chain 1 of 2): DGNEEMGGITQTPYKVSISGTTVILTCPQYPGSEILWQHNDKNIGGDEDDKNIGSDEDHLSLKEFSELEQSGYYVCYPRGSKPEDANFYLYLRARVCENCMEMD
T1 sequence (P04234 22-105 limits assumed, stated change not applied, form in doubt, chain 2 of 2): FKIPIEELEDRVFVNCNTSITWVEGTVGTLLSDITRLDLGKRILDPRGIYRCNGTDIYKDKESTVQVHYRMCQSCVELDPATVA

Binder	EC50
BTE-0151 (bispecific antibody, human IgG1, kappa, L234A L235A, anti-CD37/anti-CD3) heavy: QVQLQQWGAGLLKPSETLSLTCAVYGGSFSPYYWSWIRQPPGKGLEWIGEINHSGSTNYNPSLKSRVTISVDTSKNQFSLKLSSVTAADTAVYYCARRAGDFDYWGQGTLVTVSSASTKGPSVFPLAPSSKSTSGGTAALGCLVKDYFPEPVTVSWNSGALTSGVHTFPAVLQSSGLYSLSSVVTVPSSSLGTQTYICNVNHKPSNTKVDKKVEPKSCDKTHTCPPCPAPEAAGGPSVFLFPPKPKDTLMISRTPEVTCVVVDVSHEDPEVKFNWYVDGVEVHNAKTKPREEQYNSTYRVVSVLTVLHQDWLNGKEYKCKVSNKALAAPIEKTISKAKGQPREPQVYTLPPSRDELTKNQVSLSCAVKGFYPSDIAVEWESNGQPENNYKTTPPVLDSDGSFFLVSKLTVDKSRWQQGNVFSCSVMHEALHNHYTQKSLSLSPGK light: not shown scFv: not shown	0.0747 µg/mL
BTE-0136 (bispecific antibody, human IgG1, kappa, L234A L235A, anti-CD37/anti-CD3) heavy: QVQLQQWGAGLLKPSETLSLTCAVYGGSFSPYYWSWIRQPPGKGLEWIGEINHSGSTNYNPSLKSRVTISVDTSKNQFSLKLSSVTAADTAVYYCARRAGDFDYWGQGTLVTVSSASTKGPSVFPLAPSSKSTSGGTAALGCLVKDYFPEPVTVSWNSGALTSGVHTFPAVLQSSGLYSLSSVVTVPSSSLGTQTYICNVNHKPSNTKVDKKVEPKSCDKTHTCPPCPAPEAAGGPSVFLFPPKPKDTLMISRTPEVTCVVVDVSHEDPEVKFNWYVDGVEVHNAKTKPREEQYNSTYRVVSVLTVLHQDWLNGKEYKCKVSNKALAAPIEKTISKAKGQPREPQVYTLPPSRDELTKNQVSLSCAVKGFYPSDIAVEWESNGQPENNYKTTPPVLDSDGSFFLVSKLTVDKSRWQQGNVFSCSVMHEALHNHYTQKSLSLSPGK light: not shown scFv: not shown	0.0669 µg/mL
BTE-0137 (bispecific antibody, human IgG1, kappa, L234A L235A, anti-CD37/anti-CD3) heavy: QVQLQQWGAGLLKPSETLSLTCAVYGGSFSPYYWSWIRQPPGKGLEWIGEINHSGSTNYNPSLKSRVTISVDTSKNQFSLKLSSVTAADTAVYYCARRAGDFDYWGQGTLVTVSSASTKGPSVFPLAPSSKSTSGGTAALGCLVKDYFPEPVTVSWNSGALTSGVHTFPAVLQSSGLYSLSSVVTVPSSSLGTQTYICNVNHKPSNTKVDKKVEPKSCDKTHTCPPCPAPEAAGGPSVFLFPPKPKDTLMISRTPEVTCVVVDVSHEDPEVKFNWYVDGVEVHNAKTKPREEQYNSTYRVVSVLTVLHQDWLNGKEYKCKVSNKALAAPIEKTISKAKGQPREPQVYTLPPSRDELTKNQVSLSCAVKGFYPSDIAVEWESNGQPENNYKTTPPVLDSDGSFFLVSKLTVDKSRWQQGNVFSCSVMHEALHNHYTQKSLSLSPGK light: not shown scFv: not shown	1.6 µg/mL
BTE-0138 (bispecific antibody, human IgG1, kappa, L234A L235A, anti-CD37/anti-CD3) heavy: QVQLQQWGAGLLKPSETLSLTCAVYGGSFSPYYWSWIRQPPGKGLEWIGEINHSGSTNYNPSLKSRVTISVDTSKNQFSLKLSSVTAADTAVYYCARRAGDFDYWGQGTLVTVSSASTKGPSVFPLAPSSKSTSGGTAALGCLVKDYFPEPVTVSWNSGALTSGVHTFPAVLQSSGLYSLSSVVTVPSSSLGTQTYICNVNHKPSNTKVDKKVEPKSCDKTHTCPPCPAPEAAGGPSVFLFPPKPKDTLMISRTPEVTCVVVDVSHEDPEVKFNWYVDGVEVHNAKTKPREEQYNSTYRVVSVLTVLHQDWLNGKEYKCKVSNKALAAPIEKTISKAKGQPREPQVYTLPPSRDELTKNQVSLSCAVKGFYPSDIAVEWESNGQPENNYKTTPPVLDSDGSFFLVSKLTVDKSRWQQGNVFSCSVMHEALHNHYTQKSLSLSPGK light: not shown scFv: not shown	0.071 µg/mL
BTE-0139 (bispecific antibody, human IgG1, kappa, L234A L235A, anti-CD37/anti-CD3) heavy: QVQLQQWGAGLLKPSETLSLTCAVYGGSFSPYYWSWIRQPPGKGLEWIGEINHSGSTNYNPSLKSRVTISVDTSKNQFSLKLSSVTAADTAVYYCARRAGDFDYWGQGTLVTVSSASTKGPSVFPLAPSSKSTSGGTAALGCLVKDYFPEPVTVSWNSGALTSGVHTFPAVLQSSGLYSLSSVVTVPSSSLGTQTYICNVNHKPSNTKVDKKVEPKSCDKTHTCPPCPAPEAAGGPSVFLFPPKPKDTLMISRTPEVTCVVVDVSHEDPEVKFNWYVDGVEVHNAKTKPREEQYNSTYRVVSVLTVLHQDWLNGKEYKCKVSNKALAAPIEKTISKAKGQPREPQVYTLPPSRDELTKNQVSLSCAVKGFYPSDIAVEWESNGQPENNYKTTPPVLDSDGSFFLVSKLTVDKSRWQQGNVFSCSVMHEALHNHYTQKSLSLSPGK light: not shown scFv: not shown	0.444 µg/mL
BTE-0140 (bispecific antibody, human IgG1, kappa, L234A L235A, anti-CD37/anti-CD3) heavy: QVQLQQWGAGLLKPSETLSLTCAVYGGSFSPYYWSWIRQPPGKGLEWIGEINHSGSTNYNPSLKSRVTISVDTSKNQFSLKLSSVTAADTAVYYCARRAGDFDYWGQGTLVTVSSASTKGPSVFPLAPSSKSTSGGTAALGCLVKDYFPEPVTVSWNSGALTSGVHTFPAVLQSSGLYSLSSVVTVPSSSLGTQTYICNVNHKPSNTKVDKKVEPKSCDKTHTCPPCPAPEAAGGPSVFLFPPKPKDTLMISRTPEVTCVVVDVSHEDPEVKFNWYVDGVEVHNAKTKPREEQYNSTYRVVSVLTVLHQDWLNGKEYKCKVSNKALAAPIEKTISKAKGQPREPQVYTLPPSRDELTKNQVSLSCAVKGFYPSDIAVEWESNGQPENNYKTTPPVLDSDGSFFLVSKLTVDKSRWQQGNVFSCSVMHEALHNHYTQKSLSLSPGK light: not shown scFv: not shown	0.205 µg/mL
BTE-0141 (bispecific antibody, human IgG1, kappa, L234A L235A, anti-CD37/anti-CD3) heavy: QVQLQQWGAGLLKPSETLSLTCAVYGGSFSPYYWSWIRQPPGKGLEWIGEINHSGSTNYNPSLKSRVTISVDTSKNQFSLKLSSVTAADTAVYYCARRAGDFDYWGQGTLVTVSSASTKGPSVFPLAPSSKSTSGGTAALGCLVKDYFPEPVTVSWNSGALTSGVHTFPAVLQSSGLYSLSSVVTVPSSSLGTQTYICNVNHKPSNTKVDKKVEPKSCDKTHTCPPCPAPEAAGGPSVFLFPPKPKDTLMISRTPEVTCVVVDVSHEDPEVKFNWYVDGVEVHNAKTKPREEQYNSTYRVVSVLTVLHQDWLNGKEYKCKVSNKALAAPIEKTISKAKGQPREPQVYTLPPSRDELTKNQVSLSCAVKGFYPSDIAVEWESNGQPENNYKTTPPVLDSDGSFFLVSKLTVDKSRWQQGNVFSCSVMHEALHNHYTQKSLSLSPGK light: not shown scFv: not shown	0.029 µg/mL
BTE-0142 (bispecific antibody, human IgG1, kappa, L234A L235A, anti-CD37/anti-CD3) heavy: QVQLQQWGAGLLKPSETLSLTCAVYGGSFSPYYWSWIRQPPGKGLEWIGEINHSGSTNYNPSLKSRVTISVDTSKNQFSLKLSSVTAADTAVYYCARRAGDFDYWGQGTLVTVSSASTKGPSVFPLAPSSKSTSGGTAALGCLVKDYFPEPVTVSWNSGALTSGVHTFPAVLQSSGLYSLSSVVTVPSSSLGTQTYICNVNHKPSNTKVDKKVEPKSCDKTHTCPPCPAPEAAGGPSVFLFPPKPKDTLMISRTPEVTCVVVDVSHEDPEVKFNWYVDGVEVHNAKTKPREEQYNSTYRVVSVLTVLHQDWLNGKEYKCKVSNKALAAPIEKTISKAKGQPREPQVYTLPPSRDELTKNQVSLSCAVKGFYPSDIAVEWESNGQPENNYKTTPPVLDSDGSFFLVSKLTVDKSRWQQGNVFSCSVMHEALHNHYTQKSLSLSPGK light: not shown scFv: not shown	0.292 µg/mL
BTE-0143 (bispecific antibody, human IgG1, kappa, L234A L235A, anti-CD37/anti-CD3) heavy: QVQLQQWGAGLLKPSETLSLTCAVYGGSFSPYYWSWIRQPPGKGLEWIGEINHSGSTNYNPSLKSRVTISVDTSKNQFSLKLSSVTAADTAVYYCARRAGDFDYWGQGTLVTVSSASTKGPSVFPLAPSSKSTSGGTAALGCLVKDYFPEPVTVSWNSGALTSGVHTFPAVLQSSGLYSLSSVVTVPSSSLGTQTYICNVNHKPSNTKVDKKVEPKSCDKTHTCPPCPAPEAAGGPSVFLFPPKPKDTLMISRTPEVTCVVVDVSHEDPEVKFNWYVDGVEVHNAKTKPREEQYNSTYRVVSVLTVLHQDWLNGKEYKCKVSNKALAAPIEKTISKAKGQPREPQVYTLPPSRDELTKNQVSLSCAVKGFYPSDIAVEWESNGQPENNYKTTPPVLDSDGSFFLVSKLTVDKSRWQQGNVFSCSVMHEALHNHYTQKSLSLSPGK light: not shown scFv: not shown	0.0644 µg/mL
BTE-0144 (bispecific antibody, human IgG1, kappa, L234A L235A, anti-CD37/anti-CD3) heavy: QVQLQQWGAGLLKPSETLSLTCAVYGGSFSPYYWSWIRQPPGKGLEWIGEINHSGSTNYNPSLKSRVTISVDTSKNQFSLKLSSVTAADTAVYYCARRAGDFDYWGQGTLVTVSSASTKGPSVFPLAPSSKSTSGGTAALGCLVKDYFPEPVTVSWNSGALTSGVHTFPAVLQSSGLYSLSSVVTVPSSSLGTQTYICNVNHKPSNTKVDKKVEPKSCDKTHTCPPCPAPEAAGGPSVFLFPPKPKDTLMISRTPEVTCVVVDVSHEDPEVKFNWYVDGVEVHNAKTKPREEQYNSTYRVVSVLTVLHQDWLNGKEYKCKVSNKALAAPIEKTISKAKGQPREPQVYTLPPSRDELTKNQVSLSCAVKGFYPSDIAVEWESNGQPENNYKTTPPVLDSDGSFFLVSKLTVDKSRWQQGNVFSCSVMHEALHNHYTQKSLSLSPGK light: not shown scFv: not shown	0.138 µg/mL
BTE-0145 (bispecific antibody, human IgG1, kappa, L234A L235A, anti-CD37/anti-CD3) heavy: QVQLQQWGAGLLKPSETLSLTCAVYGGSFSPYYWSWIRQPPGKGLEWIGEINHSGSTNYNPSLKSRVTISVDTSKNQFSLKLSSVTAADTAVYYCARRAGDFDYWGQGTLVTVSSASTKGPSVFPLAPSSKSTSGGTAALGCLVKDYFPEPVTVSWNSGALTSGVHTFPAVLQSSGLYSLSSVVTVPSSSLGTQTYICNVNHKPSNTKVDKKVEPKSCDKTHTCPPCPAPEAAGGPSVFLFPPKPKDTLMISRTPEVTCVVVDVSHEDPEVKFNWYVDGVEVHNAKTKPREEQYNSTYRVVSVLTVLHQDWLNGKEYKCKVSNKALAAPIEKTISKAKGQPREPQVYTLPPSRDELTKNQVSLSCAVKGFYPSDIAVEWESNGQPENNYKTTPPVLDSDGSFFLVSKLTVDKSRWQQGNVFSCSVMHEALHNHYTQKSLSLSPGK light: not shown scFv: not shown	0.0854 µg/mL
BTE-0146 (bispecific antibody, human IgG1, kappa, L234A L235A, anti-CD37/anti-CD3) heavy: QVQLQQWGAGLLKPSETLSLTCAVYGGSFSPYYWSWIRQPPGKGLEWIGEINHSGSTNYNPSLKSRVTISVDTSKNQFSLKLSSVTAADTAVYYCARRAGDFDYWGQGTLVTVSSASTKGPSVFPLAPSSKSTSGGTAALGCLVKDYFPEPVTVSWNSGALTSGVHTFPAVLQSSGLYSLSSVVTVPSSSLGTQTYICNVNHKPSNTKVDKKVEPKSCDKTHTCPPCPAPEAAGGPSVFLFPPKPKDTLMISRTPEVTCVVVDVSHEDPEVKFNWYVDGVEVHNAKTKPREEQYNSTYRVVSVLTVLHQDWLNGKEYKCKVSNKALAAPIEKTISKAKGQPREPQVYTLPPSRDELTKNQVSLSCAVKGFYPSDIAVEWESNGQPENNYKTTPPVLDSDGSFFLVSKLTVDKSRWQQGNVFSCSVMHEALHNHYTQKSLSLSPGK light: not shown scFv: not shown	0.488 µg/mL
